Publication PMC2899456 (International Journal of Biological Sciences, 2010)

How the values were obtained:
Test in all cases: co-IP
[1] = target: E2F-1/S332-7A (UniProt Q01094 1-437, S332-7A | S332-7A)
[2] = target: E2F-1/S375A (UniProt Q01094 1-437, S375A)
[3] = target: E2F-1/S403A (UniProt Q01094 1-437, S403A)
[4] = target: E2F-1/Y411A (UniProt Q01094 1-437, Y411A)

B1: pRB (natural protein, mouse (endogenous in ψ-CRE), UniProt P13405 1-921, looked up)
chain: MPPKAPRRAAAAEPPPPPPPPPREDDPAQDSGPEELPLARLEFEEIEEPEFIALCQKLKVPDHVRERAWLTWEKVSSVDGILEGYIQKKKELWGICIFIAAVDLDEMPFTFTELQKSIETSVYKFFDLLKEIDTSTKVDNAMSRLLKKYNVLCALYSKLERTCELIYLTQPSSALSTEINSMLVLKISWITFLLAKGEVLQMEDDLVISFQLMLCVVDYFIKFSPPALLREPYKTAAIPINGSPRTPRRGQNRSARIAKQLENDTRIIEVLCKEHECNIDEVKNVYFKNFIPFINSLGIVSSNGLPEVESLSKRYEEVYLKNKDLDARLFLDHDKTLQTDPIDSFETERTPRKNNPDEEANVVTPHTPVRTVMNTIQQLMVILNSASDQPSENLISYFNNCTVNPKENILKRVKDVGHIFKEKFANAVGQGCVDIGVQRYKLGVRLYYRVMESMLKSEEERLSIQNFSKLLNDNIFHMSLLACALEVVMATYSRSTLQHLDSGTDLSFPWILNVLNLKAFDFYKVIESFIKVEANLTREMIKHLERCEHRIMESLAWLSDSPLFDLIKQSKDGEGPDNLEPACPLSLPLQGNHTAADMYLSPLRSPKKRTSTTRVNSAANTETQAASAFHTQKPLKSTSLALFYKKVYRLAYLRLNTLCARLLSDHPELEHIIWTLFQHTLQNEYELMRDRHLDQIMMCSMYGICKVKNIDLKFKIIVTAYKDLPHAAQETFKRVLIREEEFDSIIVFYNSVFMQRLKTNILQYASTRPPTLSPIPHIPRSPYKFSSSPLRIPGGNIYISPLKSPYKISEGLPTPTKMTPRSRILVSIGESFGTSEKFQKINQMVCNSDRVLKRSAEGGNPPKPLKKLRFDIEGADEADGSKHLPAESKFQQKLAEMTSTRTRMQKQRMNESKDVSNKEEK
For B1, the “fold change of the pRB/E2F-1 co-IP ratio against E2F-1/wt” value [1] was ~3 fold (increase), the “fold change of the pRB/E2F-1 co-IP ratio against E2F-1/wt” value [2] was ~2.5 fold (increase) and the “fold change of the pRB/E2F-1 co-IP ratio against E2F-1/wt” value [3] was ~3 fold (increase). For the same binder, the “fold change of the pRB/E2F-1 co-IP ratio against E2F-1/wt” value [4] was ~4 fold (decrease).
